The source of these data is doi:10.1101/2024.07.16.603698 (bioRxiv, 2024).

This test concerns the target full-length GST-tagged SARS-CoV-2 Nucleocapsid (N) protein (SARS-CoV-2, UniProt P0DTC9 1-419). The test is described as follows: pull-down.

B1: human UPF2 truncated construct lacking 120 and 45 residues at the N- and C-termini (domain or fragment)
chain: MKEKEESIQLHQEAWERHHLRKELRSKNQNAPDSRPEENFFSRLDSSLKKNTAFVKKLKTITEQQRDSLSHDFNGLNLSKYIAEAVASIVEAKLKISDVNCAVHLCSLFHQRYADFAPSLLQVWKKHFEARKEEKTPNITKLRTDLRFIAELTIVGIFTDKEGLSLIYEQLKNIINADRESHTHVSVVISFCRHCGDDIAGLVPRKVKSAAEKFNLSFPPSEIISPEKQQPFQNLLKEYFTSLTKHLKRDHRELQNTERQNRRILHSKGELSEDRHKQYEEFAMSYQKLLANSQSLADLLDENMPDLPQDKPTPEEHGPGIDIFTPGKPGEYDLEGGIWEDEDARNFYENLIDLKAFVPAILFKDNEKSCQNKESNKDDTKEAKESKENKEVSSPDDLELELENLEINDDTLELEGGDEAEDLTKKLLDEQEQEDEEASTGSHLKLIVDAFLQQLPNCVNRDLIDKAAMDFCMNMNTKANRKKLVRALFIVPRQRLDLLPFYARLVATLHPCMSDVAEDLCSMLRGDFRFHVRKKDQINIETKNKTVRFIGELTKFKMFTKNDTLHCLKMLLSDFSHHHIEMACTLLETCGRFLFRSPESHLRTSVLLEQMMRKKQAMHLDARYVTMVENAYYYCNPPPAEKTVKKKRPPLQEYVRKLLYKDLSKVTTEKVLRQMRKLPWQDQEVKDYVICCMINIWNVKYNSIHCVANLLAGLVLYQEDVGIHVVDGVLEDIRLGMEVNQPKFNQRRISSAKFLGELYNYRMVESAVIFRTLYSFTSFGVNPDGSPSSLDPPEHLFRIRLVCTILDTCGQYFDRGSSKRKLDCFLVYFQRYVWWKKSLEVWTKDHPFPIDIDYMISDTLELLRPKIKLCNSLEESIRQVQDLEREFLIKLGLVNDKDSKDSMTEGENLEEDEEEEEGGAETEEQSGNESEVNEPEEEEGSDNDDDEGEEEEEENTDYLTDSNKENETDEENTEVMIKGGGLKHVPCVEDEDFIQALDKMMLENLQQRSGESVKVHQLDVAIPLHLKSQLRKGPPLGGGEGEAESADTMPFVMLTRKGNKQQFKILNVPMSSQLAANHWNQQQAEQEERMRMKKLTLDINERQEQED
For B1, the binding result is “binds”.
